The values below come from US20140363432A1.

Test [1] deals with recombinant hVEGF (165 amino acids) (human) (UniProt P15692). The test can be described thus: cell-based or functional assay.
Test [2] has the same target. Briefly: competitive binding of 125I-hVEGF against unlabeled hVEGF, immune complexes precipitated, Scatchard analysis.
Test [3] has the same target. Briefly: 125I-hVEGF binding to bovine ACE cells with antibody (FIG. 3b). The following applies: scale: molar ratio of antibody to hVEGF.

UniProt P15692, sequence (P15692 other isoform, or with tags, fused parts or gaps): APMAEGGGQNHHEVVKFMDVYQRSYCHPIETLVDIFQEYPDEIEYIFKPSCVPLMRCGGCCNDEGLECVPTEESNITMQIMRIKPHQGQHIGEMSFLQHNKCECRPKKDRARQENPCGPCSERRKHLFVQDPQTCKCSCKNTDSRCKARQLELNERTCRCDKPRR

As for “anti-hVEGF monoclonal antibody produced by the A4.6.1 hybridoma”, the inhibition of hVEGF mitogenic activity on bovine ACE cells in test [1] is more than 90 % inhibition. For the same substance, in test [2], the Ka came to 1.2e+09 M⁻¹. Also, the molar ratio of hVEGF to antibody at complete inhibition of hVEGF binding to bovine ACE cells in test [3] turned out to be 250.
